In article PMC12014896 (2025):

B1: COVIC-143 (antibody, V domains shown)
VH: EVQLVESGGGVVQPGRSLRLSCAASGFTFSNYAMHWVRQAPGKGLEWVAVISYDGSNKYSADSVKGRFTISRDNSKNTLYLQMNSLRPEDTAVYYCARDGVGTMVRGVMSPLFDYWGQGTLVTVSS
VL: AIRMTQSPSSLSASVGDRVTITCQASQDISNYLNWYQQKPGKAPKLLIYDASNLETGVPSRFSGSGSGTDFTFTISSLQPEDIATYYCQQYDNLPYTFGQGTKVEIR
B2: COVIC-140 (antibody, V domains shown)
VH: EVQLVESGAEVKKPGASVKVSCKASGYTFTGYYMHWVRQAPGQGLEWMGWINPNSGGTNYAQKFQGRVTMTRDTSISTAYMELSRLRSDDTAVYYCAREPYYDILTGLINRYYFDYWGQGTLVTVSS
VL: QSALTQPASVSGSPGQSITISCTGTSSDVGGYNFVSWYQQHPGKAPKLMIYEVSNRPSGVSNRFSGSKSGNTASLTISGLQAEDEADYYCSSYTSSSTRVFGGGTKLTVL
B3: COVIC-128 (antibody)
chain 1: not shown
chain 2: QVQLQESGGGLVQAGGSLRLSCAASGRTFSEYAMGWFRQAPGKEREFVATISWSGGSTYYTDSVKGRFTISRDNAKNTVYLQMNSLKPDDTAVYYCAAAGLGTVVSEWDYDYDYWGQGTQVTVSSGGSGGSQVQLQESGGGLVQAGGSLRLSCVASGSIFSINAMDWYRQAPGKQRELVAGITSGGSTNYGDFVKGRFTISRDNAKNTVYLQMDSLKPEDTAVYYCAAEVGGWGPPRPDYWGHGTQVTVSSGGGGSGGGGSKRTVAAPSVFIFPPSDEQLKSGTASVVCLLNNFYPREAKVQWKVDNALQSGNSQESVTEQDSKDSTYSLSSTLTLSKADYEKHKVYACEVTHQGLSSPVTKSFNRGEC
B4: COVIC-166 (antibody, V domains shown)
VH: QVQLVESGGGVVQPGRSLRLSCAASGFTFSSYGMHWVRQAPGKGLEWVAVISYDGSDKYYADSVKGRFTISRDNSKNTLYLQMNSLRAEDTAVYYCAKTVAGYYYYYYGMDVWGQGTTVTVSS
VL: DIQMTQSPSSVSASVGDRVTVTCRASQDISSWLAWFQQKPGKAPKFLIYDASNLENGVPSRFSGSGSGTDFTLTISSLQPEDFATYYCQQAKSFPWTFGQGTKVEINR
B5: COVIC-391 (antibody, V domains shown)
VH: QVQLVQSGAEVKKPGSSVKVSCKASGGTFSSYVINWVRQAPGQGLEWMGGIIPTLGTTNYAQKFQGRVTITADKSTSTAYMELSSLRSEDTAVYYCARAGGYSGSGSNYYMDVWGKGTTVTVSS
VL: QSVLTQPPSVSGAPGQRVTISCTGSSSNIGAGYDVHWYQQLPGTAPKLLIYANNNRPSGVPDRFSGSNSGTSASLAITGLQAEDEADYYCQSYDSSLSDSVFGGGTKLTVL
B6: COVIC-310 (antibody)
chain 1: QVQLVQSGAEVKKPGSSVKVSCKASGGTFGISWVRQAPGQGLEWMGRIIPILGTANHAQKFQGRVTITADKSTGTVYMELSSLRSEDTAVYYCARDGDSGSYYETLGFDYWGQGTLVTVSSGGGGSGGGGSGGGGQVQLVESGGGVVQSGRSLRLSCAASGFTFSSYAMHWVRQAPGKGLEWVAVISHDGSNTYYEDSVKGRFTISRDNSKNTLHLQVNSLRVEDTAVYYCARAKGEVRYFDWAEQGGDYWGQGTLVTVSS
chain 2: QSALTQPPSASGSPGQSVTISCTGTSSDVGGYNYVSWYQQHPGKAPKLMIYEVNKRPSGVPDRFSGSKSGNTASLTVSGLQAEDEADYYCSSYAGSNNLVFGGGTKLTVLGGGGSGGGGSGGGGSYELTQPPSVSVSPGQTARITCSGDALPKKYAYWYQQKSGQAPVLVIYEDSKRPSGIPERFSGSSSGTMATLTISGAQVEDEADYYCYSTDNSGDHGVFGGGTKLTVL
B7: COVIC-385 (antibody, V domains shown)
VH: EVQLVESGGGLVQPGGSLRLSCKASGISVAPHAVTWVRQAPGKGLEWIGVIASNADTYYASWAKGRFTISRDNSKNTLYLQMNSLRAEDTAVYYCARHPGSAGYGYTYYYAMDPWGQGTLVTVSS
VL: DIQMTQSPSSLSASVGDRVTITCQASERVFYGIDWYQQKPGKAPKLLIYGASALWHGVPSRFSGSGSGTDYTLTISSLQPEDFATYYCQQGYMVPIGFGGGTKVEIK
B8: COVIC-360 (antibody, V domains shown)
VH: EVQLVESGGGLVQPGGSLRLSCKASGISVAPHAVTWVRQAPGKGLEWIGVIASNADTYYASWAKGRFTISRDNSKNTLYLQMNSLRAEDTAVYYCARHPGSAGYGYTYYYAMDPWGQGTLVTVSS
VL: DIQMTQSPSSLSASVGDRVTITCQASQKIHYAINWYQQKPGKAPKLLIYGTSYLGGGVPSRFSGSGSGTDFTLTISSLQPEDFATYYCQQGYIVPNSFGGGTKVEIK
B9: COVIC-331 (antibody, V domains shown)
VH: EVQLVESGGGLIQVGGSLRLSCAASGLTVTSNYMNWVRQGPGKGLEWVSLIYSGGTTYYADSVKGRFTISRDDSKNTLYLQMNSLRAEDTAVYYCARPIVGARSGMDVWGQGTAVTVSS
VL: DIQMTQSPSSLSASVGDRVTITCQASQDINKYLNWYQQKPGKAPKLLIYDASNLETGVPSRFSGSGSGTDFTFTISSLQPEDLATYYCHQFDNLPGTFGGGTKVEIK
B10: COVIC-122 (antibody)
chain: QVQLQESGGGLVQAGGSLRLSCAASGRTFSEYAMGWFRQAPGKEREFVATISWSGGSTYYTDSVKGRFTISRDNAKNTVYLQMNSLKPDDTAVYYCAAAGLGTVVSEWDYDYDYWGQGTQVTVSSGGSGGSQVQLQESGGGLVQAGGSLRLSCAASGRTFSEYAMGWFRQAPGKEREFVATISWSGGSTYYTDSVKGRFTISRDNAKNTVYLQMNSLKPDDTAVYYCAAAGLGTVVSEWDYDYDYWGQGTQVTVSSGGGGSGGGGSKKKPLDGEYFTLQIRGRERFEMFRELNEALELKDAQAGKEPGGGGGSGGGGSQVQLQESGGGLVQAGGSLRLSCAASGRTFSEYAMGWFRQAPGKEREFVATISWSGGSTYYTDSVKGRFTISRDNAKNTVYLQMNSLKPDDTAVYYCAAAGLGTVVSEWDYDYDYWGQGTQVTVSSGGSGGSQVQLQESGGGLVQAGGSLRLSCAASGRTFSEYAMGWFRQAPGKEREFVATISWSGGSTYYTDSVKGRFTISRDNAKNTVYLQMNSLKPDDTAVYYCAAAGLGTVVSEWDYDYDYWGQGTQVTVSS
B11: COVIC-249 (antibody, V domains shown)
VH: QVQLVQPGGGVIQPGRSLRLSCTASGFTFSSYPMHWVRQAPGKGLEWVAVISYDGDNKYYADSVKGRFTISRDNSKNTLYLQMNSLKSDDTAMYYCARDYVVVILSDSFYYGMDVWGQGTTVTVSS
VL: QSALTQPRSVSGSPGQSVTISCTGTSSDVGGYNYVSWYQQYPGKAPKLMIYDVSKRPSGVPDRFSGSKSGNTASLTISGLQGEDEADYYCCSYAGSYTYVFGTGTKVTVL
B12: COVIC-311 (antibody)
chain 1: QVQLVESGGGVVQSGRSLRLSCAASGFTFSSYAMHWVRQAPGKGLEWVAVISHDGSNTYYEDSVKGRFTISRDNSKNTLHLQVNSLRVEDTAVYYCARAKGEVRYFDWAEQGGDYWGQGTLVTVSSGGGGSGGGGSGGGGQVQLVQSGAEVKKPGSSVKVSCKASGGTFGISWVRQAPGQGLEWMGRIIPILGTANHAQKFQGRVTITADKSTGTVYMELSSLRSEDTAVYYCARDGDSGSYYETLGFDYWGQGTLVTVSS
chain 2: SYELTQPPSVSVSPGQTARITCSGDALPKKYAYWYQQKSGQAPVLVIYEDSKRPSGIPERFSGSSSGTMATLTISGAQVEDEADYYCYSTDNSGDHGVFGGGTKLTVLGGGGSGGGGSGGGGQSALTQPPSASGSPGQSVTISCTGTSSDVGGYNYVSWYQQHPGKAPKLMIYEVNKRPSGVPDRFSGSKSGNTASLTVSGLQAEDEADYYCSSYAGSNNLVFGGGTKLTVL
B13: COVIC-295 (antibody, V domains shown)
VH: QVQLVQSGAEVKKPGSSVKVSCKASGGTFSSYSFIWVRQAPGQGLEWMGRIIPILGIANYAQKFQGRVTITADKSTTTAYMELSSLRSEDTAVYYCARGTEYGDYDVSHDWGQGTLVTVSS
VL: not shown
B14: COVIC-186 (antibody, V domains shown)
VH: QVQLLQSGAEVKKPGASVKVSCKASGYSFTSYYMHWVRQAPGQGLEWMGIINPSGGGTTYAQKFQGRVTMTRDTSTSTVYMELSSLRSEDTAVYYCARPGGGSYQEFDYWGQGTLVTVSS
VL: DIQMTQSPSSLSASVGDRVTITCRASQSISSYLNWYQQKPGKAPKLLISAASSLQSGVPSRFSGSGSGTDFTLTISSLQPEDFATYYCQQSYNTLQVTFGGGTKVEIK
B15: COVIC-164 (antibody, V domains shown)
VH: EVQLVESGGGLIQPGGSLRLSCAAAGLTVSSNYMNWVRQVPGKGLEWVSVIYSGGSTYYADSVKGRFTISRDNSKNTLYLQMNSLRAEDTAVYYCARDLGTLGMDVWGQGTTVTVSS
VL: DIQLTQSPSFLSASVGDRVTITCWASQGISTYLAWYQQKPGKAPKLLIYAASTLQSGVPSRFSGSGSGTEFTLTISSLQPEDFATYYCQQLNSYLPTFGQGTKVEIKR
B16: COVIC-297 (antibody, V domains shown)
VH: EVLLVESGGGLIQPGGSLRLSCAASGLTVSSNYMSWVRQAPGKGLEWVSVIYSGGSTFYADSVKGRFTISRDNSKNTLYLQMNSLRAEDTAVYYCARDLVTWGLDYWGQGTLVTVSS
VL: AIQLTQSPSSLSASVGDRVTITCRASQGISSYLAWYQQKPGKAPKLLIYAASTLQSGVPSRFSGSGSGTDFTLTISSLQPEDFATYYCQLLNTDPITFGQGTRLEIK
B17: COVIC-158 (antibody, V domains shown)
VH: EVQLVESGGGLIQPGGSLRLSCAASGLTVSSNYMNWVRQAPGKKLEWVSVIYSGGSTFYADSVRGRFTISRDNSKNTLFLQMNSLRAEDSAVYYCARDLGPYGVDVWGQGTTVTVSS
VL: DIQLTQSPSFLSASVGDRVTITCWASQGISSYLAWYQQKPGKAPKLLIYAASTLQSGVPSRFSGSGSGTEFTLTISSLQPEDFATYYCQQLNSYPLTFGQGTRLEIKR
B18: COVIC-250 (antibody, V domains shown)
VH: QVQLQQSGPGLVKPSETLALTCTVSGGSTSSYYWSWIRQPPGKGLEWIGSIYYSGSTDYNPSLKSRVTISLDTSKTQFSLKLSSVTAADTAVYYCARVDTSGWYTGDVFDYWGQGTLVTVSS
VL: DIQMTQPPSSLSASVGDRVTITCRASQSLSSYLNWYQQKPGKAPKLLIYAVFSLQSGVPSRFSGSGSGTDFTLTISSLQPEDFATYYCQQSYSTPLTFGGGTKVEIK
B19: COVIC-184 (antibody, V domains shown)
VH: QITLKESGPTLVKPTQTLTLTCTFSGFSLSTSGVGVGWIRQPPGKALEWLALIYWDDDKRYSPSLKSRLTITKDTSKNQVVLTMTNMDPVDTATYYCAHHKIERIFDYWGQGTLVTVSS
VL: QSALAQPASVSGSPGQSITISCTGTSSDVGAYNYVSWYQQHPGKAPKLMIYDVSKRPSGVSNRFSGSKSGNTASLTISGLQAEDEADYYCSSYTTSSTVFGGGTKLTVL
B20: COVIC-172 (antibody, V domains shown)
VH: QVQLVESGGDVVQPGRSLRLSCAASGFTFSRYGMHWVRQAPGKGLEWVAVISYDGSDKYYADSVKGRFTISRDNSKNTLYLQMNSLRAEDTAVYYCAKQLPLYYYYYGMDVWGQGTTVTVSS
VL: AIQLTQSPSSLSASVGDRVTITCRASQGISSALAWYQQKPGKAPNLLIYDASSLESGVPSRFSGSGSGTDFTLTISSLQPEDFATYYCQQFNIYPHTFGPGTKVDIKR

Molecular target: SARS-CoV-2 spike RBD (Wuhan-Hu-1) (Severe acute respiratory syndrome …, UniProt P0DTC2)
Assay: SPR

Compared with B1, B2 is 32-fold higher in Kd: 5.91 nM for the first, 190 nM for the second.

Going from B3 to B4, the Kd falls from 119 nM to 0.826 nM (140-fold).

Going from B5 to B6, the Kd rises from 0.0198 nM to 1.85 nM (93-fold).

Going from B7 to B8, the Kd falls from 0.0327 nM to 0.0132 nM (2.5-fold). The second binds more tightly here.

Going from B9 to B10, the Kd rises from 0.0704 nM to 203 nM (2900-fold).

Compared with B11, B12 is 3.2-fold lower in Kd: 9.81 nM for the first, 3.03 nM for the second. The second binds more tightly here.

First: B13
Second: B14
The Kd of the first is 23-fold lower: 0.266 nM for the first, 6.1 nM for the second.

Going from B15 to B16, the Kd falls from 2.25 nM to 0.271 nM (8.3-fold).

Compared with B17, B18 is 11-fold higher in Kd: 1.59 nM for the first, 17.7 nM for the second. The first binds more tightly here.

First: B19
Second: B20
The Kd of the first is 3.6-fold higher: 34.4 nM for the first, 9.47 nM for the second.
